Laboratory results as given in patent publication US20240374682A1, “PHARMACEUTICAL USE OF HYPOXIA-INDUCIBLE LIPID DROPLET-ASSOCIATED PROTEIN OR TRUNCATED FRAGMENT THEREOF” (Westlake University, priority 2021, published 2024).

Key:
[1] = tested on: SD rats; assay: APOE content in rat cerebrospinal fluid after lateral ventricle injection (ELISA); assay type: in vivo; settings: 0.8 mg/kg lateral ventricle, 4 hours after injection, versus solvent
Experimental: 1) SD rats (8-10 weeks, male, Shanghai Family Planning Institute) were injected through lateral ventricle with the truncated sequence P04 of HILPDA at a dose of 0.8 mg/kg rat body weight or with the same amount of solvent (50% DMSO+50% 0.9% NaCl) in total of 20 μL:
2) After 4 hours of injection, the cerebrospinal fluid of the rat was collected:
3) ELISA kit (Cat. No.: E-EL-R1230c, ELabScience) was used to detect the apolipoprotein APOE content in the cerebrospinal fluid.

[2] = tested on: HuH-7 cells, Hep-G2 cells or 786-0 cells; assay: Uptake of Dil-labelled human low-density lipoprotein by cells (flow cytometry); assay type: cell-based; settings: 10 μM peptide, 5 μg/mL LDL-Dil, 3 hours, versus solvent (DMSO)
Experimental: 1) HuH-7 cells (Cat. No.: TCHu182. Cell Bank of Type Culture Collection Committee of Chinese Academy of Sciences/Cell Resource Center of Shanghai Institutes for Life Sciences. Chinese Academy of Sciences) and Hep-G2 cells (Cat. No.: HB-8065. ATCC. USA) or 786-0 cells (Cat. No.: Cell Bank TCHul86. Cell Bank of Type Culture Collection Committee of Chinese Academy of Sciences/Cell Resource Center of Shanghai Institutes for Life Sciences, Chinese Academy of Sciences) were cultured with DMEM medium in a 10 cm cell culture dish.
2) Low-density lipoprotein from human plasma and Dil complex (Cat. No. L3482. Invitrogen) were added at a final concentration of 5 μg/mL to the above cells, and at the same time. 10 μM HILPDA P01, truncated sequence P03 of HILPDA or corresponding volume of solvent (DMSO) was added to the cell culture medium.
3) After culturing for 3 hours, the cells were washed twice with PBS, and the flow cytometry experiment was performed, and the Dil signal intensity of the cells was detected on the PE channel (as shown in FIGS. 8A to 8D).

[3] = tested on: ES-2 cells; assay: APOE3-3xHA uptake by recipient ES-2 cells with synthesized HILPDA peptides (immunofluorescence); assay type: cell-based; settings: 10 μM peptide, 24 hours, versus solvent (DMSO)
Experimental: (§1) 1) HEK293T cells were cultured with DMEM medium in a 10 cm cell culture dish.
2) A plasmid of APOE3-3xHA gene was expressed in the above cells.
(§2) 3) After 12 hours, the old medium in 1) was replaced with fresh DMEM cell culture medium.
4) After further culturing for 48 hours, the media of the cells cultured in 3) were collected. respectively, and these media were used to directly culture the recipient ES-2 cells (Cat. No.: TCHu111. Cell Bank of Typical Culture Collection Committee of Chinese Academy of Sciences/Cell Resource Center of Shanghai Institutes for Life Sciences. Chinese Academy of Sciences) that had been pre-digested with 0.25% EDTA trypsin, and at the same time, 10 μM truncated sequence HILPDA P01, HILPDA P03 or the corresponding volume of solvent (DMSO) was added to the cell culture media.
5) After culturing for 24 hours, anti-HA antibody (Cat. No.: ab9110, abcam: a fusion protein for detecting APOE3-3xHA gene expression) was used to carry out immunofluorescent staining experiments.

[4] = tested on: SD rats; assay: Low-density lipoprotein cholesterol level in rat plasma after tail vein injection; assay type: in vivo; settings: 1.5 mg/kg tail vein, 5 hours after injection, versus solvent
Experimental: 1) SD rats (8-10 weeks old, female, Shanghai Family Planning Institute) were injected through tail vein with HILPDA P02 at a dose of 1.5 mg/kg rat body weight or the same amount of solvent (50% DMSO+50% 0.9% NaCl) in total of 100 μL:
2) After 5 hours of injection, about 1 mL of blood was collected from the tail vein, and the collected blood was placed in an EDTA-K2 anticoagulant tube and underwent ice-bath for 1 hour, then centrifuged at 2000*g at 4° C., for 10 minutes, and the supernatant plasma was collected:
3) A biochemical analyzer (Mindray 240) was used to analyze the low-density lipoprotein cholesterol content in the plasma (as shown in FIG. 10).

[5] = tested on: mouse brain slices; assay: APOE3 uptake by mouse brain slices from conditioned medium (immunofluorescence); assay type: cell-based; settings: conditioned HEK293T medium, 48 hours, versus GFP-Flag + APOE3-3xHA
Experimental: as §1
(§3) 2) The above cells were separately co-transfected with:
plasmid expressing GFP-FLAG and APOE3-3xHA plasmid, and
plasmid expressing HILPDA-Flag and APOE3-3xHA plasmid,
as §2
4) After further culturing for 48 hours, the media of the cultured cells in 3) were collected, respectively, and these media were used to directly culture mouse brain slices, wherein the brain slices were obtained by slicing fresh mouse brains to reach a thickness of 150 μm by a vibrating microtome. The slices were cultured in DMEM medium.
5) After culturing for 48 hours, immunofluorescent staining experiments were carried out with anti-HA antibody (Cat. No.: ab9110, abcam: for detecting APOE3-3xHA fusion protein).

[6] = tested on: recipient cells (786-O, 769-P, HuH7, ES-2); assay: APOE uptake by recipient cells from conditioned medium of HEK293T cells co-expressing HILPDA-Flag and APOE-3xHA (immunofluorescence); assay type: cell-based; settings: 24 hours
Experimental: as §1, §3
GFP-Flag expressing plasmid and APOE2-3xHA plasmid,
GFP-Flag expressing plasmid and APOE3-3xHA plasmid,
GFP-Flag expressing plasmid and APOE4-3xHA plasmid,
HILPDA-Flag expressing plasmid and APOE2-3xHA plasmid,
HILPDA-Flag expressing plasmid and APOE3-3xHA plasmid, and
HILPDA-Flag expressing plasmid and APOE4-3xHA plasmid.
as §2
4) After further culturing for 48 hours, the media of the cultured cells in 3) were collected, respectively, and these media were used to directly culture the recipient cells, such as 786-O (Cat. No.: Cell Bank TCHu186, Cell Bank of Type Culture Collection Committee of Chinese Academy of Sciences/Cell Resource Center of Shanghai Institutes for Life Sciences, Chinese Academy of Sciences), 769-P (Cat. No.: Cell Bank TCHu215, Cell Bank of Type Culture Collection Committee of Chinese Academy of Sciences/Cell Resource Center of Shanghai Institutes for Life Sciences, Chinese Academy of Sciences), HuH7 (Cat. No.: TCHu182, Cell Bank of Type Culture Collection Committee of Chinese Academy of Sciences/Cell Resource Center of Shanghai Institutes for Life Sciences, Chinese Academy of Sciences), ES-2 (Cat. No.: TCHu111, Cell Bank of Type Culture Collection Committee of Chinese Academy of Sciences/Cell Resource Center of Shanghai Institutes for Life Sciences, Chinese Academy of Sciences) wild-type cells, that had been pre-digested with trypsin containing 0.25% EDTA.
5) After culturing for 24 hours, anti-Flag (Cat. No.: F1804, sigma: for detecting GFP-Flag or HILPDA-Flag fusion protein) and anti-HA antibody (Cat. No.: ab9110, abcam: for detecting fusion proteins expressed by three different alleles of APOE2-3xHA, APOE3-3xHA or APOE4-3xHA) were used to perform immunofluorescent staining experiments.

[7] = tested on: neuronal cells obtained by induction and differentiation of human embryonic stem cells; assay: APOE uptake by recipient neuronal cells from conditioned medium (western blotting); assay type: cell-based; settings: conditioned HEK293T medium, 24 hours
Experimental: as §1
2) The above cells separately were: transfected to express APOE2-3xHA plasmid, transfected to express APOE3-3xHA plasmid, transfected to express APOE4-3xHA plasmid, co-transfected with plasmid expressing HILPDA-Flag and APOE2-3xHA plasmid, co-transfected with plasmid expressing HILPDA-Flag and APOE3-3xHA plasmid, and co-transfected with plasmid expressing HILPDA-Flag and APOE4-3xHA plasmid.
as §2
4) After further culturing for 48 hours, the media of the cultured cells in 3) were collected, respectively, and these media were used to directly culture recipient neuronal cells, wherein the neuronal cells were obtained by induction and differentiation of human embryonic stem cells (WA09-H9 Wincell Research Institute) through STEMdiff Neural (STEMCELL Technologits) differentiation system.
5) After culturing for 24 hours, anti-Actin (Cat. No.: Proteintech, 66009-1-Ig) and anti-HA antibody (Cat. No.: ab9110, abcam: used to detect three fusion proteins expressed by different alleles APOE2-3xHA, APOE3-3xHA or APOE4-3xHA) were used to perform western blotting.

“HILPDA P04: synthesized truncated rat HILPDA, SEQ ID NO: 14 (MKYMLNLYVLGVMLTLLSIF) (truncated fragment of rat HILPDA)” was tested, and the “content of apolipoprotein APOE in the cerebrospinal fluid” value [1] was “significantly decreased”.

With “HILPDA P03: synthesized truncated human HILPDA, SEQ ID NO: 13 (MKHVLNLYLLGVVLTLLSIF) (truncated fragment of human HILPDA)” the “uptake of human low-density lipoprotein particles (Dil signal intensity)” value [2] was “Promote the Uptake” and the “APOE3-3xHA uptake by recipient cells (anti-HA fluorescent signal)” value (shortened to “APOE3-3xHA uptake by recipient cells”) [3] was “Promote the Clearance”.

B1: HILPDA P01: synthesized mouse HILPDA polypeptide, SEQ ID NO: 2 (peptide, listed as Mus musculus)
chain: MKFMLNLYVLGIMLTLLSIFVRVMESLGGLLESPLPGSSWITRGQLANTQPPKGLPDHPSRGVQ
With B1 the “uptake of human low-density lipoprotein particles (Dil signal intensity)” value [2] was “Promote the Uptake” and the “APOE3-3xHA uptake by recipient cells” value [3] was “Promote the Clearance”.

B2: HILPDA P02: synthesized rat HILPDA polypeptide, SEQ ID NO: 12 (peptide, listed as Rattus norvegicus)
chain: MKYMLNLYVLGVMLTLLSIFVRLMESLGGLLENPLPGSSWITRGHLANTQPPRGLPDHPSRGVQ
For B2, the “low-density lipoprotein cholesterol level in plasma” value [4] was “significantly reduced”.

B3: HILPDA-Flag: human HILPDA protein fused with FLAG tag, expressed in HEK293T cells and secreted into culture medium (protein, UniProt Q9Y5L2 1-63, looked up)
Hypoxia-inducible lipid …: MKHVLNLYLLGVVLTLLSIFVRVMESLEGLLESPSPGTSWTTRSQLANTEPTKGLPDHPSRSM
modifications: FLAG tag
notes: human HILPDA protein fused with FLAG tag, expressed in HEK293T cells and secreted into culture medium
With B3 the “APOE3-3xHA uptake by brain slices (anti-HA fluorescent signal)” value [5] was “more and stronger fluorescent signals”, the “APOE2-3xHA uptake by recipient cells (anti-HA fluorescent signal)” value ([6]; versus GFP-Flag + APOE2-3xHA) was “more and stronger fluorescent signals” and the “APOE3-3xHA uptake by recipient cells” value ([6]; versus GFP-Flag + APOE3-3xHA) was “more and stronger fluorescent signals”. The “APOE4-3xHA uptake by recipient cells (anti-HA fluorescent signal)” value ([6]; versus GFP-Flag + APOE4-3xHA) was “more and stronger fluorescent signals”, the “APOE2-3xHA level in recipient neuronal cells (anti-HA bands)” value ([7]; versus APOE2-3xHA alone) was “higher levels of APOE” and the “APOE3-3xHA level in recipient neuronal cells (anti-HA bands)” value ([7]; versus APOE3-3xHA alone) was “higher levels of APOE”. The “APOE4-3xHA level in recipient neuronal cells (anti-HA bands)” value ([7]; versus APOE4-3xHA alone) was “higher levels of APOE”.
